The text below walks through data of US20240279344A1 (CDR LIFE, published 2024).

Substitutions are numbered along the chain they refer to.

B1: M1123 (bispecific antibody, V domains shown)
VH: EVQLLESGGGSVQPGGSLRLSCTVSGFSLSNYAMSWVRQAPGKGLEWIGIVSSGGTTYYASWAKGRFTISKDTSKNTVYLQMNSLRAEDTASYYCAKDLYYGPTTYSAFNLWGQGTSVTVSS
VL: SYELTQPPSVSVSPGQTASITCTADTLSRSYASWYQQKPGQSPVLVIYRDTSRPSGIPERFSGSNSGNTATLTISGTQAMDEADYYCATRPSAGSNFQLFGGGTKLTVL
notes: Variant of humanized M0763; tested in SPR as anti-CD3 Fab x anti-MAGE-A4 scFv bispecific
B2: M1169 (bispecific antibody, V domains shown)
VH: B1 VH with F109A
VL: B1 VL with A93S, Q98V
notes: as for B1
B3: M1132 (bispecific antibody, V domains shown)
VH: B1 VH with S52A
VL: B1 VL with A93S
notes: as for B1
B4: M1145 (bispecific antibody, V domains shown)
VH: B1 VH with G65A
VL: B1 VL with A93S
notes: as for B1
B5: M1142 (bispecific antibody, V domains shown)
VH: B1 VH with W62A
VL: B1 VL with A93S
notes: as for B1
B6: M1124 (bispecific antibody, V domains shown)
VH: B1 VH
VL: B1 VL with A93S, G94A
notes: as for B1
B7: M1140 (bispecific antibody, V domains shown)
VH: B1 VH with A60S
VL: B1 VL with A93S
notes: as for B1
B8: M1141 (bispecific antibody, V domains shown)
VH: B1 VH with S61A
VL: B1 VL with A93S
notes: as for B1
B9: M1134 (bispecific antibody, V domains shown)
VH: B1 VH with G54A
VL: B1 VL with A93S
notes: as for B1
B10: M1133 (bispecific antibody, V domains shown)
VH: B1 VH with S53A
VL: B1 VL with A93S
notes: as for B1
B11: M1298 (bispecific antibody, V domains shown)
VH: B1 VH with F109A
VL: B1 VL with S92W, A93P
notes: as for B1
B12: M1135 (bispecific antibody, V domains shown)
VH: B1 VH with G55A
VL: B1 VL with A93S
notes: as for B1
B13: M1138 (bispecific antibody, V domains shown)
VH: B1 VH with Y58A
VL: B1 VL with A93S
notes: as for B1
B14: M1299 (bispecific antibody, V domains shown)
VH: B1 VH with F109A
VL: B1 VL with S92F, A93P
notes: as for B1
B15: M1202 (bispecific antibody, V domains shown)
VH: B1 VH with A108S, F109A
VL: B1 VL with A93S
notes: as for B1
B16: M1178 (bispecific antibody, V domains shown)
VH: B1 VH with F109A
VL: B1 VL with A88Q, T89A, A93S
notes: as for B1
B17: M1130 (bispecific antibody, V domains shown)
VH: B1 VH with I50A
VL: B1 VL with A93S
notes: as for B1
B18: M1144 (bispecific antibody, V domains shown)
VH: B1 VH with K64A
VL: B1 VL with A93S
notes: as for B1
B19: M1127 (bispecific antibody, V domains shown)
VH: B1 VH
VL: B1 VL with A93S, F97A
notes: as for B1
B20: M1136 (bispecific antibody, V domains shown)
VH: B1 VH with T56A
VL: B1 VL with A93S
notes: as for B1
B21: M1131 (bispecific antibody, V domains shown)
VH: B1 VH with V51A
VL: B1 VL with A93S
notes: as for B1
B22: M1139 (bispecific antibody, V domains shown)
VH: B1 VH with Y59A
VL: B1 VL with A93S
notes: as for B1
B23: M1176 (bispecific antibody, V domains shown)
VH: B1 VH with F109A
VL: B1 VL with A93S, N96V
notes: as for B1
B24: M1125 (bispecific antibody, V domains shown)
VH: B1 VH
VL: B1 VL with A93S, S95A
notes: as for B1
B25: M1128 (bispecific antibody, V domains shown)
VH: B1 VH
VL: B1 VL with A93S, Q98A
notes: as for B1
B26: M1297 (bispecific antibody, V domains shown)
VH: B1 VH with T104S, S107F, A108V, F109A
VL: B1 VL with A93S
notes: as for B1
B27: M1253 (bispecific antibody, V domains shown)
VH: B1 VH with F109A
VL: B1 VL with A93S, L99A
notes: as for B1
B28: M1177 (bispecific antibody, V domains shown)
VH: B1 VH with F109A
VL: B1 VL with A93S, F97T, Q98V, L99V
notes: as for B1
B29: M1137 (bispecific antibody, V domains shown)
VH: B1 VH with T57A
VL: B1 VL with A93S
notes: as for B1
B30: M1171 (bispecific antibody, V domains shown)
VH: B1 VH with F109L
VL: B1 VL with A93S
notes: as for B1
B31: M1172 (bispecific antibody, V domains shown)
VH: B1 VH with F109P
VL: B1 VL with A93S
notes: as for B1
B32: M1143 (bispecific antibody, V domains shown)
VH: B1 VH with A63S
VL: B1 VL with A93S
notes: as for B1
B33: M1129 (bispecific antibody, V domains shown)
VH: B1 VH
VL: B1 VL with A93S, L99A
notes: as for B1

This experiment has as its target T1, HLA-A2/MAGE-A4 complex, recombinant (HLA-A*02:01 extracellular domain, human b2m, MAGE-A4 peptide 230-239 …) (human, UniProt P04439 25-299 at identity 0.94); P61769 21-119).
T1 construct: also called MAGE-A4 pMHC; MAGE-A4/HLA-A2 complex
The experiment in a line: SPR, monovalent. On the technique in general: SPR reads the build-up and loss of mass on a sensor chip optically.
One may read the Kd as the constant that tells how readily two partners part at equilibrium. On to B1, for which the Kd stood at 0.79 nM.
Then B2, with 3.2 nM; and B3, with 4.1 nM.
For the molecule B4, the Kd amounted to 2.1 nM.
The figure for B5 is 2.9 nM; for B6 it is 0.65 nM.
The figure for B7 is 2.8 nM.
The figure for B8 is 1.2 nM; for B9 it is 4.2 nM; for B10 it is 12.4 nM.
With B11, the Kd was 0.07 nM.
The figure for B12 is 2.4 nM; for B13 it is 3.1 nM.
The figure for B14 is 0.05 nM.
The figure for B15 is 3.9 nM; for B16 it is 8.3 nM.
Take B17: the Kd turned out to be 2.2 nM.
Then B18, with 2.3 nM; and B19, with 0.89 nM; and B20, with 2.7 nM.
For B21, the Kd came out at 3.2 nM.
Then B22, with 2.1 nM.
The figure for B23 is 6 nM; for B24 it is 0.89 nM.
On to B25, for which the Kd is 1.32 nM.
The figure for B26 is 0.09 nM; for B27 it is 2.55 nM.
Then B28, with 4.2 nM.
With B29, the Kd was determined as 2.2 nM.
Consider B30, for which the Kd came out at 4.4 nM.
The figure for B31 is 1.5 nM; for B32 it is 2.4 nM.
B33: the Kd came to 0.46 nM.
